# Measured values: patent publication US20250084186A1 (published 2025)
# T1: cynomolgus ENPP3 (cynomolgus, UniProt A0A2K5TKP4 49-874)
# T1 chain: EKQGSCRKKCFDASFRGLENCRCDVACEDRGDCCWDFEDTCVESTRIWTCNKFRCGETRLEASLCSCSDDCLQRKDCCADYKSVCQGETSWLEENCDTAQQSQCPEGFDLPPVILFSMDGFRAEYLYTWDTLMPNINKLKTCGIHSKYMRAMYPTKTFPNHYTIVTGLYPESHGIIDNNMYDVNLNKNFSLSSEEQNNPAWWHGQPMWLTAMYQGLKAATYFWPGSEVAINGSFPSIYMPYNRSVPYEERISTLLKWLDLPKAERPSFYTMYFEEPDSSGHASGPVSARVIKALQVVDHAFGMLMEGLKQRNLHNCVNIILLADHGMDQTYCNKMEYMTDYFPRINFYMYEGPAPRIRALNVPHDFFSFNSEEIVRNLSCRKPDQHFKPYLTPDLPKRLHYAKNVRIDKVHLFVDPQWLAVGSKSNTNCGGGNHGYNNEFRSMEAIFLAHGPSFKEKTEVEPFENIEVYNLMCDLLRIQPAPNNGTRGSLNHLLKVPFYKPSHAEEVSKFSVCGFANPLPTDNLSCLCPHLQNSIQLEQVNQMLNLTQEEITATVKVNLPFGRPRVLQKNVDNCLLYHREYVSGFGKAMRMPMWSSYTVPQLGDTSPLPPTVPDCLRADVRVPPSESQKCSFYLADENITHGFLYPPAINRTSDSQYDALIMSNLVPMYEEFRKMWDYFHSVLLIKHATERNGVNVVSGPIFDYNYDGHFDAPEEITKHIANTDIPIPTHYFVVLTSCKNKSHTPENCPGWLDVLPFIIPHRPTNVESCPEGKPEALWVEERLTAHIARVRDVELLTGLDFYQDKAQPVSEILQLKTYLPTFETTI
# B1: Cyno ENPP3 (enzyme)
# chain: EKQGSCRKKCFDASFRGLENCRCDVACEDRGDCCWDFEDTCVESTRIWTCNKFRCGETRLEASLCSCSDDCLQRKDCCADYKSVCQGETSWLEENCDTAQQSQCPEGFDLPPVILFSMDGFRAEYLYTWDTLMPNINKLKTCGIHSKYMRAMYPTKTFPNHYTIVTGLYPESHGIIDNNMYDVNLNKNFSLSSEEQNNPAWWHGQPMWLTAMYQGLKAATYFWPGSEVAINGSFPSIYMPYNRSVPYEERISTLLKWLDLPKAERPSFYTMYFEEPDSSGHASGPVSARVIKALQVVDHAFGMLMEGLKQRNLHNCVNIILLADHGMDQTYCNKMEYMTDYFPRINFYMYEGPAPRIRALNVPHDFFSFNSEEIVRNLSCRKPDQHFKPYLTPDLPKRLHYAKNVRIDKVHLFVDPQWLAVGSKSNTNCGGGNHGYNNEFRSMEAIFLAHGPSFKEKTEVEPFENIEVYNLMCDLLRIQPAPNNGTRGSLNHLLKVPFYKPSHAEEVSKFSVCGFANPLPTDNLSCLCPHLQNSIQLEQVNQMLNLTQEEITATVKVNLPFGRPRVLQKNVDNCLLYHREYVSGFGKAMRMPMWSSYTVPQLGDTSPLPPTVPDCLRADVRVPPSESQKCSFYLADENITHGFLYPPAINRTSDSQYDALIMSNLVPMYEEFRKMWDYFHSVLLIKHATERNGVNVVSGPIFDYNYDGHFDAPEEITKHIANTDIPIPTHYFVVLTSCKNKSHTPENCPGWLDVLPFIIPHRPTNVESCPEGKPEALWVEERLTAHIARVRDVELLTGLDFYQDKAQPVSEILQLKTYLPTFETTI
# B2: AN1[ENPP3]_H1_L1.33 (antibody, V domains shown)
# VH: EVQLVESGGGLVQPGGSLRLSCAASGFAFSNYGMSWVRQAPGKRLEWVSYISSGGGTTYYLDSVKGRFTISRDNAKNSLYLQMNSLRAEDTAVYYCARHRRVYYGYYFDYWGQGTLVTVSS
# VL: DILLTQSPDFQSVTPKEKVTITCRASQSIGTSIHWYQQKPDQSPKLLIEYASESISGIPSRFSGSGSGTDFTLTINSLEAEDAATYYCQQSNSWPYTFGGGTKLEIK
# B3: AN1[ENPP3]_H1L1 (antibody, V domains shown)
# VH: EVQLVESGGGLVQPGGSLRLSCAASGFAFSNYGMSWVRQAPGKRLEWVSYISSGGGTTYYLDSVKGRFTISRDNAKNSLYLQMNSLRAEDTAVYYCARHRRVYYGYYFDYWGQGTLVTVSS
# VL: DILLTQSPDFQSVTPKEKVTITCRASQSIGTSIHWYQQKPDQSPKLLIKYASESISGIPSRFSGSGSGTDFTLTINSLEAEDAATYYCQQSNSWPYTFGGGTKLEIK
# B4: H1.14_L1 (antibody, V domains shown)
# VH: EVQLLESGGGLVQPGGSLRLSCAASGFTFSSYAMSWVRQAPGKGLEWVSTISGSGDSTYYADSVKGRFTISRDNSKNTLYLQMNSLRAEDTAVYYCAKSGPGLRQVGFDYWGQGTLVTVSS
# VL: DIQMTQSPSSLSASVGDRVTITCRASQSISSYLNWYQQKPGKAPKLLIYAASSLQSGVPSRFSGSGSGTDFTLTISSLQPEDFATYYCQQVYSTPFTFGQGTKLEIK
# B5: H1L1 (antibody, V domains shown)
# VH: EVQLLESGGGLVQPGGSLRLSCAASGFTFSSYAMSWVRQAPGKGLEWVSTISGSGDSTYYADSVKGRFTISRDNSKNTLYLQMNSLRAEDTAVYYCAKSGPGLRQVGFDYWGQGTLVTVSS
# VL: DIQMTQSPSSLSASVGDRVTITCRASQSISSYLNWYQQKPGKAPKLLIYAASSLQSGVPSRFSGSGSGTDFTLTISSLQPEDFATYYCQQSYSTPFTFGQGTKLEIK
# B6: H1_L1.71 (antibody, V domains shown)
# VH: EVQLLESGGGLVQPGGSLRLSCAASGFTFSSYYMSWVRQAPGKGLEWVSTISGSGDSTYYADSVKGRFTISRDNSKNTLYLQMNSLRAEDTAVYYCAKSGPGLRQVGFDYWGQGTLVTVSS
# VL: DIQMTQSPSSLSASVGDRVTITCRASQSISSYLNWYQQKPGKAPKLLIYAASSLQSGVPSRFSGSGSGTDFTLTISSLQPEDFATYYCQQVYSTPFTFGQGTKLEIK
# B7: H1.1_L1.71 (antibody, V domains shown)
# VH: EVQLLESGGGLVQPGGSLRLSCAASGFTFSSYYMSWVRQAPGKGLEWVSTISESGDSTYYADSVKGRFTISRDNSKNTLYLQMNSLRAEDTAVYYCAKSGPGLRQVGFDYWGQGTLVTVSS
# VL: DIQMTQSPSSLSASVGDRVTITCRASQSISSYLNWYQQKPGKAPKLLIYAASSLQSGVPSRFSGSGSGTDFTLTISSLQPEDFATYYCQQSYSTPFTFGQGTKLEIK
# B8: H1.14_L1.71 (antibody, V domains shown)
# VH: EVQLLESGGGLVQPGGSLRLSCAASGFTFSSYYMSWVRQAPGKGLEWVSTISESGDSTYYADSVKGRFTISRDNSKNTLYLQMNSLRAEDTAVYYCAKSGPGLRQVGFDYWGQGTLVTVSS
# VL: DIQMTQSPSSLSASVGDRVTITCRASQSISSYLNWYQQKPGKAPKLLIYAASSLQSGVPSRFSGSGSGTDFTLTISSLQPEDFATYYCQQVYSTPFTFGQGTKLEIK
# B9: H1.1_L1 (antibody, V domains shown)
# VH: EVQLLESGGGLVQPGGSLRLSCAASGFTFSSYYMSWVRQAPGKGLEWVSTISGSGDSTYYADSVKGRFTISRDNSKNTLYLQMNSLRAEDTAVYYCAKSGPGLRQVGFDYWGQGTLVTVSS
# VL: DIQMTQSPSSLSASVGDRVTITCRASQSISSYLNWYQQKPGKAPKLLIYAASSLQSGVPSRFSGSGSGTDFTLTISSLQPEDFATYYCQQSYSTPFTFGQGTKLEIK
# What was measured:
# [1] = target: Ha16-1(3,5)5[ENPP3]_H1L1; assay: Biacore; steady state
# [2] = target: ENPP3-A[ENPP3]_H1L1; assay: Biacore; steady state
# [3] = target: Ha16-1(3,5)18[ENPP3]_H1L1; assay: Biacore; steady state
# [4] = target: Ha16-1(3,5)5[ENPP3]_H1L1; assay: Biacore; kinetics
# [5] = target: ENPP3-A[ENPP3]_H1L1; assay: Biacore; kinetics
# [6] = target: Ha16-1(3,5)18[ENPP3]_H1L1; assay: Biacore; kinetics
# [7] = target: T1, cynomolgus ENPP3; assay: Biacore; kinetics
# [8] = target: Human ENPP3; assay: Biacore; kinetics
# [9] = target: T1, cynomolgus ENPP3; assay: Biacore; steady state
# [10] = target: Human ENPP3; assay: Biacore; steady state
# [11] = target: human CD28 (human, UniProt P10747 19-152); assay: -; scFv VHVL, 1+1 Fab-scFv-Fc
binder,measurement,setting,value
B1,Kd,[1],70 nM
same,Kd,[2],330 nM
same,Kd,[3],140 nM
same,Kd,[4],21 nM
same,Kd,[5],320 nM
same,Kd,[6],110 nM
B2,Kd,[7],1800 nM
same,Kd,[8],74 nM
same,Kd,[9],1200 nM
same,Kd,[10],170 nM
B3,Kd,[7],460 nM
same,Kd,[8],9 nM
same,Kd,[9],470 nM
same,Kd,[10],35 nM
B4,Kd,[11],230 nM
B5,Kd,[11],1000 nM
B6,Kd,[11],180 nM
B7,Kd,[11],96 nM
B8,Kd,[11],37 nM
B9,Kd,[11],600 nM
